From the supplement of paper PMC10567573

B1: MLH1 (parent)
chain: YAHQMVRTDSREQKLDAFLQPLSK

Variants of: B1
Assay: protein stability index of a GFP-peptide fusion (GPS, HEK-293T) (PSI 1-6); higher = more stable
Details: c terminus: a fixed tail appended
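Also: lentivirally expressed fusions sorted by FACS into six bins by GFP to DsRed ratio, PSI derived from sequencing read proportions per bin multiplied by bin number.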

| Variant | protein stability index |
| --- | --- |
| YAHQRVRTDSREQKLDAFLQPLSK | 2.59 |
| YAHQFVRTDSREQKLDAFLQPLSK | 2.34 |
| YAHQYVRTDSREQKLDAFLQPLSK | 2.43 |
| YAHQKVRTDSREQKLDAFLQPLSK | 2.98 |
| YAHQNVRTDSREQKLDAFLQPLSK | 3.16 |
| YAHQPVRTDSREQKLDAFLQPLSK | 2.57 |
| YAHQGVRTDSREQKLDAFLQPLSK | 2.63 |
| YAHQLVRTDSREQKLDAFLQPLSK | 2.49 |
| YAHQDVRTDSREQKLDAFLQPLSK | 3.34 |
| YAHQMVRTDSREQKLDAFRQPLSK | 3.33 |
| YAHQMVRTDSREQKLDAFHQPLSK | 3.12 |
| YAHQMVRTDSREQKLDAFGQPLSK | 2.12 |
| YAHQMVRTDSREQKLDAFNQPLSK | 2.85 |
| YAHQMVRTDSREQKLDAFKQPLSK | 3.16 |
| YAHQMVRTDSREQKLDAFPQPLSK | 2.55 |
| YAHQMVRTDSREQKLDAFWQPLSK | 2.42 |
| YAHQMVRTDSREQKLDAFQQPLSK | 3.02 |
| YAHQMVRTHSREQKLDAFLQPLSK | 2.75 |
| YAHQMVRTRSREQKLDAFLQPLSK | 2.54 |
| YAHQMVRTASREQKLDAFLQPLSK | 2.18 |
| YAHQMVRTTSREQKLDAFLQPLSK | 1.99 |
| YAHQMVRTYSREQKLDAFLQPLSK | 1.98 |
| YAHQMVRTISREQKLDAFLQPLSK | 2.15 |
| YAHQMVRTPSREQKLDAFLQPLSK | 2.29 |

| Variant | protein stability index |
| --- | --- |
| YAHQMVRTVSREQKLDAFLQPLSK | 1.89 |
| YAHQMVRTESREQKLDAFLQPLSK | 2.95 |
| YAHQMVRTDSREQWLDAFLQPLSK | 1.86 |
| YAHQMVRTDSREQVLDAFLQPLSK | 2.57 |
| YAHQMVRTDSREQCLDAFLQPLSK | 2.08 |
| YAHQMVRTDSREQDLDAFLQPLSK | 2.46 |
| YAHQMVRTDSREQYLDAFLQPLSK | 1.83 |
| YAHQMVRTDSREQILDAFLQPLSK | 2.43 |
| YAHQMVRTDSREQFLDAFLQPLSK | 2 |
| YAHQMVRTDSREQALDAFLQPLSK | 2.84 |
| YAHQMVRTDSREQELDAFLQPLSK | 2.78 |
| YAHQMVRTDSREQKQDAFLQPLSK | 3.77 |
| YAHQMVRTDSREQKFDAFLQPLSK | 2.2 |
| YAHQMVRTDSREQKEDAFLQPLSK | 3.83 |
| YAHQMVRTDSREQKGDAFLQPLSK | 3.28 |
| YAHQMVRTDSREQKIDAFLQPLSK | 2.17 |
| YAHQMVRTDSREQKDDAFLQPLSK | 3.25 |
| YAHQMVRTDSREQKNDAFLQPLSK | 3.28 |
| YAHWMVRTDSREQKLDAFLQPLSK | 2.7 |
| YAHIMVRTDSREQKLDAFLQPLSK | 2.16 |
| YAHKMVRTDSREQKLDAFLQPLSK | 2 |
| YAHVMVRTDSREQKLDAFLQPLSK | 2.37 |
| YAHFMVRTDSREQKLDAFLQPLSK | 2 |
| YAHRMVRTDSREQKLDAFLQPLSK | 1.93 |

| Variant | protein stability index |
| --- | --- |
| YAHMMVRTDSREQKLDAFLQPLSK | 2.51 |
| YAHTMVRTDSREQKLDAFLQPLSK | 2.16 |
| YAHCMVRTDSREQKLDAFLQPLSK | 2.07 |
| YAHHMVRTDSREQKLDAFLQPLSK | 2.04 |
| YAHQMVWTDSREQKLDAFLQPLSK | 2.32 |
| YAHQMVCTDSREQKLDAFLQPLSK | 1.59 |
| YAHQMVFTDSREQKLDAFLQPLSK | 2.18 |
| YAHQMVNTDSREQKLDAFLQPLSK | 2.98 |
| YAHQMVITDSREQKLDAFLQPLSK | 2.57 |
| YAHQMVPTDSREQKLDAFLQPLSK | 3.06 |
| YAHQMVRTDSREQKLWAFLQPLSK | 3.5 |
| YAHQMVRTDSREQKLNAFLQPLSK | 1.91 |
| YAHQMVRTDSREQKLQAFLQPLSK | 2.46 |
| YAHQMVRTDSREQKLIAFLQPLSK | 2.16 |
| YAHQMVRTDSREQKLLAFLQPLSK | 1.62 |
| YAHQMVRTDSREQKLGAFLQPLSK | 2.08 |
| YAHQMVRTDSREQKLSAFLQPLSK | 2.1 |
| YAHQMVRTDSREQKLYAFLQPLSK | 1.57 |
| HAHQMVRTDSREQKLDAFLQPLSK | 3.6 |
| MAHQMVRTDSREQKLDAFLQPLSK | 3.11 |
| AAHQMVRTDSREQKLDAFLQPLSK | 3.48 |
| SAHQMVRTDSREQKLDAFLQPLSK | 3.88 |
| QAHQMVRTDSREQKLDAFLQPLSK | 3.97 |
| KAHQMVRTDSREQKLDAFLQPLSK | 3.88 |

| Variant | protein stability index |
| --- | --- |
| IAHQMVRTDSREQKLDAFLQPLSK | 3.38 |
| GAHQMVRTDSREQKLDAFLQPLSK | 3.87 |
| YAHQMVRTDSREQKLDAFLQPLPK | 2.18 |
| YAHQMVRTDSREQKLDAFLQPLNK | 2.42 |
| YAHQMVRTDSREQKLDAFLQPLGK | 3.24 |
| YAHQMVRTDSREQKLDAFLQPLRK | 2.45 |
| YAHQMVRTDSREQKLDAFLQPLQK | 2.7 |
| YAHQMVRTDSREQKLDAFLQPLDK | 3.41 |
| YAHQMVRTDSREQKLDAFLQPLHK | 2.01 |
| YAHQMVRTDSREQKLDAFLQPLAK | 1.99 |
| YAHQMVRTDSGEQKLDAFLQPLSK | 2.78 |
| YAHQMVRTDSWEQKLDAFLQPLSK | 1.33 |
| YAHQMVRTDSIEQKLDAFLQPLSK | 2.1 |
| YAHQMVRTDSRWQKLDAFLQPLSK | 1.6 |
| YAHQMVRTDSRRQKLDAFLQPLSK | 2.53 |
| YAHQMVRTDSRPQKLDAFLQPLSK | 2.32 |
| YAHQMVRTDSRVQKLDAFLQPLSK | 2.42 |
| YAHQMVRTDSRGQKLDAFLQPLSK | 2.2 |
| YAHQMVRTDSRYQKLDAFLQPLSK | 1.98 |
| YAHQMVRTDSRTQKLDAFLQPLSK | 2.29 |
| YAHQMVRTDSRLQKLDAFLQPLSK | 2 |
| YAHQMVRTDSRMQKLDAFLQPLSK | 1.87 |
| YAHQMVRTDSRAQKLDAFLQPLSK | 2.37 |
| YAHQMVRTDSRIQKLDAFLQPLSK | 1.82 |

| Variant | protein stability index |
| --- | --- |
| YAHQMVRTDSRDQKLDAFLQPLSK | 3.18 |
| YAHQMVRTDSRCQKLDAFLQPLSK | 2.19 |
| YAHQMVRTDWREQKLDAFLQPLSK | 1.66 |
| YAHQMVRTDLREQKLDAFLQPLSK | 1.72 |
| YAHQMVRTDEREQKLDAFLQPLSK | 2.79 |
| YAHQMVRTDRREQKLDAFLQPLSK | 2.51 |
| YAHQMVRTDSREQKLDIFLQPLSK | 2.69 |
| YAHQMVRTDSREQKLDRFLQPLSK | 2.66 |
| YAHQMVRTDSREQKLDWFLQPLSK | 2.19 |
| YAHQMVRTDSREQKLDFFLQPLSK | 1.88 |
| YAHQMVRTDSREQKLDKFLQPLSK | 3.29 |
| YAHQMVRTDSREQKLDSFLQPLSK | 2.57 |
| YAHQMVRTDSREQKLDDFLQPLSK | 3 |
| YAHQMVRTDSREQKLDCFLQPLSK | 2.15 |
| YAHQMVRTDSREQKLDVFLQPLSK | 3.02 |
| YAHQMVRTDSREQKLDNFLQPLSK | 3.19 |
| YAHQMVRTDSREQKLDLFLQPLSK | 1.85 |
| YAHQMVRTDSREQKLDAFLQNLSK | 2.4 |
| YAHQMVRTDSREQKLDAFLQQLSK | 2.7 |
| YAHQMVRTDSREQKLDAFLQLLSK | 2.16 |
| YAHQMVRTDSREQKLDAFLQMLSK | 1.9 |
| YAHQMVRTDSREQKLDAFLQHLSK | 2.57 |
| YAHQMVRTDSREQKLDAFLQKLSK | 2.42 |
| YAHQMVRTDSREQKLDAFLQWLSK | 2.4 |

| Variant | protein stability index |
| --- | --- |
| YAHQMVRTDSREQKLDAFLQTLSK | 2.21 |
| YAHQMVRTDSREQKLDAFLQVLSK | 2.48 |
| YAHQMVRTDSREQKLDAFLQPSSK | 3.14 |
| YAHQMVRTDSREQKLDAFLQPRSK | 3.02 |
| YAHQMVRTDSREQKLDAFLQPPSK | 2.06 |
| YAHQMVRTDSREQKLDAFLQPNSK | 3.11 |
| YAHQMVRTDSREQKLDAFLQPASK | 2.59 |
| YAHQMVRTDSREQKLDAFLQPHSK | 2.45 |
| YAHQMVRTDSREQKLDAFLQPKSK | 2.98 |
| YAHQMVRTDSREQKLDAFLQPLSC | 2.29 |
| YAHQMVRTDSREQKLDAFLQPLSE | 3.28 |
| YAHQMVRTDSREQKLDAFLQPLSW | 2.16 |
| YAHQMVRTDSREQKLDAFLQPLSD | 3.26 |
| YAFQMVRTDSREQKLDAFLQPLSK | 2.19 |
| YAIQMVRTDSREQKLDAFLQPLSK | 2.5 |
| YAGQMVRTDSREQKLDAFLQPLSK | 2.15 |
| YAHQMIRTDSREQKLDAFLQPLSK | 2.43 |
| YAHQMSRTDSREQKLDAFLQPLSK | 2.97 |
| YAHQMLRTDSREQKLDAFLQPLSK | 2.48 |
| YAHQMDRTDSREQKLDAFLQPLSK | 3.03 |
| YAHQMMRTDSREQKLDAFLQPLSK | 2.29 |
| YAHQMYRTDSREQKLDAFLQPLSK | 2.42 |
| YAHQMTRTDSREQKLDAFLQPLSK | 2.7 |
| YAHQMVRTDSREQKLDAELQPLSK | 3.12 |

| Variant | protein stability index |
| --- | --- |
| YAHQMVRTDSREQKLDANLQPLSK | 3.15 |
| YAHQMVRTDSREQKLDAWLQPLSK | 1.85 |
| YAHQMVRTDSREQKLDATLQPLSK | 3.36 |
| YAHQMVRTDSREQKLDAGLQPLSK | 2.79 |
| YAHQMVRTDSREQKLDARLQPLSK | 3.17 |
| YAHQMVRTDSREQKLDAHLQPLSK | 3.29 |
| YAHQMVRTDSREQKLDACLQPLSK | 3.22 |
| YAHQMVRTDSREQKLDAQLQPLSK | 3.55 |
| YAHQMVRTDSREQKLDASLQPLSK | 3.52 |
| YAHQMVRTDSREGKLDAFLQPLSK | 2.32 |
| YAHQMVRTDSREIKLDAFLQPLSK | 1.94 |
| YAHQMVRTDSRERKLDAFLQPLSK | 2.78 |
| YAHQMVRTDSREMKLDAFLQPLSK | 2.06 |
| YAHQMVRTDSRECKLDAFLQPLSK | 1.54 |
| YAHQMVRTDSRETKLDAFLQPLSK | 2.7 |
| YAHQMVRTDSREHKLDAFLQPLSK | 2.04 |
| YAHQMVRTDSREWKLDAFLQPLSK | 2.18 |
| YAHQMVRFDSREQKLDAFLQPLSK | 2.12 |
| YAHQMVRLDSREQKLDAFLQPLSK | 2.43 |
| YAHQMVRDDSREQKLDAFLQPLSK | 2.78 |
| YAHQMVRPDSREQKLDAFLQPLSK | 2.19 |
| YAHQMVRCDSREQKLDAFLQPLSK | 2.27 |
| YAHQMVRGDSREQKLDAFLQPLSK | 2.69 |
| YRHQMVRTDSREQKLDAFLQPLSK | 3.12 |

| Variant | protein stability index |
| --- | --- |
| YSHQMVRTDSREQKLDAFLQPLSK | 2.82 |
| YVHQMVRTDSREQKLDAFLQPLSK | 1.93 |
| YTHQMVRTDSREQKLDAFLQPLSK | 2.55 |
| YHHQMVRTDSREQKLDAFLQPLSK | 1.8 |
| YQHQMVRTDSREQKLDAFLQPLSK | 2.74 |
| YDHQMVRTDSREQKLDAFLQPLSK | 4.03 |
| YLHQMVRTDSREQKLDAFLQPLSK | 2.84 |
| YYHQMVRTDSREQKLDAFLQPLSK | 2.39 |
| YMHQMVRTDSREQKLDAFLQPLSK | 3.12 |
| YAHQMVRTDSREQKLDAFLCPLSK | 1.98 |
| YAHQMVRTDSREQKLDAFLYPLSK | 1.88 |
| YAHQMVRTDSREQKLDAFLIPLSK | 2.07 |
| YAHQMVRTDSREQKLDAFLFPLSK | 1.91 |
| YAHQMVRTDSREQKLDAFLVPLSK | 2.09 |
| YAHQMVRTDSREQKLDAFLAPLSK | 2.49 |
| YAHQMVRTDSREQKLDAFLEPLSK | 2.51 |
| YAHQMVRTDSREQKLDAFLLPLSK | 2.53 |
| YAHQMVRTDSREQKLDAFLHPLSK | 2.78 |
| YAHQMVRTDSREQKLDAFLMPLSK | 2.45 |
| YAHQMVRTDSREQKLDAFLWPLSK | 2.99 |
